Patent US20240018502A1

Legend:
[1] = molecular target: plasma purified human complement protein C3 (human) (UniProt P01024); assay: cell-based or functional assay
[2] = molecular target: human complement protein C3 (human) (UniProt P01024); assay: cell-based or functional assay
human complement protein C3 (human), sequence (P01024 23-667, chain 1 of 2): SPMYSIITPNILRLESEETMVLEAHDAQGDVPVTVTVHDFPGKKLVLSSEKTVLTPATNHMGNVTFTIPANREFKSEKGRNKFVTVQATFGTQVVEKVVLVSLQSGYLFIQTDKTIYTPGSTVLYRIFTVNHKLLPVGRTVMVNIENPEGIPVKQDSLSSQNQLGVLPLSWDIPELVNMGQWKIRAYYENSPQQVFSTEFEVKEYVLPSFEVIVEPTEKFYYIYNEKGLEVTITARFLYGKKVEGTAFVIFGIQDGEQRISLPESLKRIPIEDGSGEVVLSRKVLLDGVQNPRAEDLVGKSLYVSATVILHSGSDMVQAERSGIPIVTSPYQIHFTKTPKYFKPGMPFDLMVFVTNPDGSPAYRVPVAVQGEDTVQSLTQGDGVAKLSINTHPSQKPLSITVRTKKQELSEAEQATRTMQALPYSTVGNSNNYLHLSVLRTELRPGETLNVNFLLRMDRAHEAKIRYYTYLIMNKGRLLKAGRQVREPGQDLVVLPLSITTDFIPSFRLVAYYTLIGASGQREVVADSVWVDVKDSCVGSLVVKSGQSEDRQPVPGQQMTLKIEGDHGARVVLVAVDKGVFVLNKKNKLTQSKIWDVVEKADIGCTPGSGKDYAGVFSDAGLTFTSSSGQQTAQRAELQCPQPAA
human complement protein C3 (human), sequence (P01024 672-1663, chain 2 of 2): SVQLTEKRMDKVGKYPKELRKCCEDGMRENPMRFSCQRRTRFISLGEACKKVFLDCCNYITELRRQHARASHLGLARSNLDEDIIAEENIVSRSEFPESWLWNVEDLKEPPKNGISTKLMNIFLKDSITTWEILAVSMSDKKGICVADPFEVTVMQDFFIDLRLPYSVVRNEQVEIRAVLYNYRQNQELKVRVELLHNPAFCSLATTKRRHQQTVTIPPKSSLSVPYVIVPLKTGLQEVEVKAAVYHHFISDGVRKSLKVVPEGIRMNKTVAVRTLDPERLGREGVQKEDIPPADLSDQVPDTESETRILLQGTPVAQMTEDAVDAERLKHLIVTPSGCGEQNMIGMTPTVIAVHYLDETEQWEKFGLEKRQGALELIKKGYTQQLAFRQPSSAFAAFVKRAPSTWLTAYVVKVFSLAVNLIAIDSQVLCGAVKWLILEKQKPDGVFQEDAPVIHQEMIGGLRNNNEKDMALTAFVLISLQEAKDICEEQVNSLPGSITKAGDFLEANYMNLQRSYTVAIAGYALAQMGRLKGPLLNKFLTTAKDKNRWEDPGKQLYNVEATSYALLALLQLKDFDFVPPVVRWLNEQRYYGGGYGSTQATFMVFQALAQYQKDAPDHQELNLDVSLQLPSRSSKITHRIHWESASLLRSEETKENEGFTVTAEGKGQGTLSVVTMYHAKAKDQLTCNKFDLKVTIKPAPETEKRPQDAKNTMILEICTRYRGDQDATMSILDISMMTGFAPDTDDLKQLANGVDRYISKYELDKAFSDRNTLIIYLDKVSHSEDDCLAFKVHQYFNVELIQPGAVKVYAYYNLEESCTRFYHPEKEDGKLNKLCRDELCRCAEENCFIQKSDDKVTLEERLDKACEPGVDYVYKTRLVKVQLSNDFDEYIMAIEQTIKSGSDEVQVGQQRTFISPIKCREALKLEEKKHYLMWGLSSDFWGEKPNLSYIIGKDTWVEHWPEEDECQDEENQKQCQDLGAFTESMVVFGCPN

plasma purified human complement protein C3 (human), sequence (P01024 23-667, chain 1 of 2): as the sequence (P01024 23-667, chain 1 of 2) above
plasma purified human complement protein C3 (human), sequence (P01024 672-1663, chain 2 of 2): as the sequence (P01024 672-1663, chain 2 of 2) above

Row | Substance | EC50 of hC3 cleavage [1] | also measured
1 | MTSP-1 H40R/I41H/F97D/F99L/C122S/Q175L/Q192G/D217Q/K224R (from UniProt Q9Y5Y6 615-855) (enzyme) | 14.9 nM | 
2 | MTSP-1 protease domain Q38Y/I41S/D60bT/F60eR/Y60gW/D96M/F97N/T98G/F99L/C122S/Q175L/Q192D (from UniProt Q9Y5Y6 615-855) (enzyme) |  | EC50 hC3 cleavage [1]: 3.75 nM
3 | Q38Y/I41S/D60bT/F60eR/Y60gW/D96M/F97N/T98G/F99L/C122S/Q175L/Q192D (from UniProt Q9Y5Y6 615-855) (enzyme) |  | EC50 (nM), cleavage of purified hC3 in vitro [2]: 3.75 nM

More lines, main results first:

Row | EC50 of hC3 cleavage [1] | Substance | also measured
4 | 1530 nM | MTSP-1 H40R/I41H/F97D/F99L/C122S/G151D/Q192G (from UniProt Q9Y5Y6 615-855) (enzyme) | 
5 | 7.41 nM | MTSP-1 H40R/I41H/Y60gL/F97D/F99L/C122S/G151N/Q175M/D217I/K224S (from UniProt Q9Y5Y6 615-855) (enzyme) | 
